Laboratory results taken from patent publication US20260209362A1 (VIB VZW, published 2026).

T1: biotinylated human recombinant IL-12Rβ2 (produced in-house) (human, UniProt Q99665 24-622, random biotinylated)
T1 construct: Soluble recombinant protein used for panning, ELISA and BLI; also called hIL-12RB2; hIL12RB2
T1 sequence: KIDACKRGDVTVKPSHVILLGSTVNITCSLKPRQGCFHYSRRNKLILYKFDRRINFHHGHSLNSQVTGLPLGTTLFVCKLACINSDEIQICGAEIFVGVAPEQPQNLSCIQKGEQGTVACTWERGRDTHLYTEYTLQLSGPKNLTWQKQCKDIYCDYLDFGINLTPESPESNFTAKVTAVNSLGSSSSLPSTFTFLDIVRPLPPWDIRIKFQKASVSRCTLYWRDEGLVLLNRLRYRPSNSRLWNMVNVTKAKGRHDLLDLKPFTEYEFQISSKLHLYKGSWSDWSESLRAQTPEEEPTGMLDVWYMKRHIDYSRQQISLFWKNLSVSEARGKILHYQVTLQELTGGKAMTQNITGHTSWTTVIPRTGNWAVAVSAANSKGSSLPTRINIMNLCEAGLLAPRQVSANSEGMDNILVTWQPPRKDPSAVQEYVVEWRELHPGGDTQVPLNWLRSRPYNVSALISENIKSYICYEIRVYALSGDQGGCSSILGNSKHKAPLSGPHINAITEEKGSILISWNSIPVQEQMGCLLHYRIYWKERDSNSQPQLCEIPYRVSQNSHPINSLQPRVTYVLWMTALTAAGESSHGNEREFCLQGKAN

T2: biotinylated mouse recombinant IL-12Rβ2 (produced in-house) (mouse, UniProt P97378 24-637, random biotinylated)
T2 construct: Soluble recombinant protein used for panning, ELISA and BLI; also called mIL-12RB2; mIL12RB2
T2 sequence: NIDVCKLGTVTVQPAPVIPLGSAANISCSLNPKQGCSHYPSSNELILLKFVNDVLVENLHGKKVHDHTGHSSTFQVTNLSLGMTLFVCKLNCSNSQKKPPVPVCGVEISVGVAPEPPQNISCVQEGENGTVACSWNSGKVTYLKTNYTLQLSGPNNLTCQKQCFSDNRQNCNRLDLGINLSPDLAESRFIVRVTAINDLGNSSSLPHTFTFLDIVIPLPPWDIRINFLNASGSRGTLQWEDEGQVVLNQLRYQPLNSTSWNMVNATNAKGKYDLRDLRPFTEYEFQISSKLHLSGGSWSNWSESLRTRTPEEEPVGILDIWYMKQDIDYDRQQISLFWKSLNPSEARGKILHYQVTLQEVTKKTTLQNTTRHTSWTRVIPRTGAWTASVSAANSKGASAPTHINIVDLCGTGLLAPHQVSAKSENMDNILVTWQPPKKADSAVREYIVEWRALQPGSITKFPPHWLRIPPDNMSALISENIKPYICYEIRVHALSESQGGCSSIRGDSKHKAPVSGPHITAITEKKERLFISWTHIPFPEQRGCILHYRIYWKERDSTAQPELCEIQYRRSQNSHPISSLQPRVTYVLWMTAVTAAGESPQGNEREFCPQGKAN

T3: human IL-12Rβ2 expressed on cells (human, UniProt Q99665 24-862)
T3 construct: the cell lines are described by plasmid or cDNA number only; also called hIL-12RB2; HEK293T transiently transfected with human IL-12Rβ2
T3 sequence: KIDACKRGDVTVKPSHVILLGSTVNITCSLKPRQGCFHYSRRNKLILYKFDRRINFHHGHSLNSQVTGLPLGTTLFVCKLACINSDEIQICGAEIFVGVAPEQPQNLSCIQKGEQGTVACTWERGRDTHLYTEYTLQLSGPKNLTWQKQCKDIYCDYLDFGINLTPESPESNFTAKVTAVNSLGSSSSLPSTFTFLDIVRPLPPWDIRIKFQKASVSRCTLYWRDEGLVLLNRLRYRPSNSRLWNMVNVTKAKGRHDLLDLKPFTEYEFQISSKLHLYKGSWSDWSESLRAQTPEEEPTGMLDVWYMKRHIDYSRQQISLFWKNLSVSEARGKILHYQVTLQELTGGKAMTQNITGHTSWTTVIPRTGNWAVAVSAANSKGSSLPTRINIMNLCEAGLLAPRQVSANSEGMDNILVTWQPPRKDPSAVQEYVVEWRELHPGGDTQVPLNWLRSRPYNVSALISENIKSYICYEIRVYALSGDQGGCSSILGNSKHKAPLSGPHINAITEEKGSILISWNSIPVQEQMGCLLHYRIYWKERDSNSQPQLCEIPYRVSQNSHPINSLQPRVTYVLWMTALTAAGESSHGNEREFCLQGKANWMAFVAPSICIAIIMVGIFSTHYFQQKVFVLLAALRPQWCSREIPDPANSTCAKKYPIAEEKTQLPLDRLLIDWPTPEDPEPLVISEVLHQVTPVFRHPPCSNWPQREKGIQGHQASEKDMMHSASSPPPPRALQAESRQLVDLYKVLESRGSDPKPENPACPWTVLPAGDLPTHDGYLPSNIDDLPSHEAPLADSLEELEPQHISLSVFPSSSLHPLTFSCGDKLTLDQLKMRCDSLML

T4: mouse IL-12Rβ2 expressed on cells (mouse, UniProt P97378 24-874)
T4 construct: the cell lines are described by plasmid or cDNA number only; also called mIL-12RB2; HEK293T transiently transfected with mouse IL-12Rβ2
T4 sequence: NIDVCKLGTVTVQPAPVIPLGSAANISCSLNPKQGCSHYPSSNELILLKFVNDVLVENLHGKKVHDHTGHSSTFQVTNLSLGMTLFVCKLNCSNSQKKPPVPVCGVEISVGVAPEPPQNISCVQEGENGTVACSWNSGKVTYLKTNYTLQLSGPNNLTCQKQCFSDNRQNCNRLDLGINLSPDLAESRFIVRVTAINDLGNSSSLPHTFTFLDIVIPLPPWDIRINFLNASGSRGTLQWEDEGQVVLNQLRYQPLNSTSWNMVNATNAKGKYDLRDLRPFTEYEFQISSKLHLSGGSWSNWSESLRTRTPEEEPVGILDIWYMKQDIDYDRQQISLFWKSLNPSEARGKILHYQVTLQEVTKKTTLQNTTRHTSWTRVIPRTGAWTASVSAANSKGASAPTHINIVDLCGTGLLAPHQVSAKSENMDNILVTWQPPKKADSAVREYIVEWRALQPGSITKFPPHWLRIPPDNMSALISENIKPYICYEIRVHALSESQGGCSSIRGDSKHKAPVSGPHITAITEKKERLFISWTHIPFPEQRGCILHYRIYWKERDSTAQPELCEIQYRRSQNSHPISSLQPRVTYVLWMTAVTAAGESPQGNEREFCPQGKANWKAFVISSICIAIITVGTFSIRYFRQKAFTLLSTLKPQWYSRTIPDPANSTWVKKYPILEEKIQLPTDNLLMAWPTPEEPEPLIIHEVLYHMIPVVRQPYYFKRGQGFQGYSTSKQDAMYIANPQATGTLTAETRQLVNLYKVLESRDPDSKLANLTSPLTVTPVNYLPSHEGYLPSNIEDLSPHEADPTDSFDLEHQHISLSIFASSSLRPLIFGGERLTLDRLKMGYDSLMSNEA

T5: biotinylated recombinant human IL-12Rβ2 (human, UniProt Q99665 24-622, random biotinylated)
T5 construct: Recombinant protein produced in-house; also called hIL-12RB2; human IL-12RB2
T5 sequence: T1 sequence

T6: biotinylated recombinant mouse IL-12Rβ2 (mouse, UniProt P97378 24-637, random biotinylated)
T6 construct: Recombinant protein produced in-house; also called mIL-12RB2; mouse IL-12RB2
T6 sequence: T2 sequence

B1: anti-IL-12Rβ2 VHH clone 3CRHM99 (clone ID 21062) (VHH)
VHH: QVQLQESGGGLVQPGGSLRLSCAASGISSSRLHVGWFRQSPGKEREFVAAISLSGGTQAYTDSVKGRFTISGDNVKNTAYLQMNSLRPEDTAVYYCAARERFIWTWSDLTYDYWGQGTQVTVSS
notes: Tested as periplasmic extract; not shown: C-terminal HA tag
B2: anti-IL-12Rβ2 VHH clone 3CRH83 (clone ID 20390) (VHH, not shown: small tags and cut ends)
VHH: QVQLQESGGGLVQAGGSLKLSCAASGNTFSINAMAWYRQAPGQELELVAAISDVGNTIYADSMKGRFTISRGNADNTVYLQMNSLKPEDTATYYCNAGTFYTSPGDSYYRGYDFWGQGTQVTVSS
notes: periplasmic extract
B3: anti-IL-12Rβ2 VHH clone 3CAHM11 (clone ID 21050) (VHH, not shown: small tags and cut ends)
VHH: QVQLQESGGGLVQAGGSLRLSCAASGRTFNNYAMAWFRQAPGKEREFIAAITRSDTTLYIDSVKGRFTISRDNAKNTVALQMNSLKPEDTAVYYCAAGMPYSYSDYPRDSKYDYWGRGTQVTVSS
notes: periplasmic extract
B4: anti-IL-12Rβ2 VHH clone 3CRHM14 (clone ID 21053) (VHH)
VHH: QVQLQESGGGLVQAGGSLRLSCAASGRTFSNYAMAWFRQAPGTEREFVAGLSGSGGDTEFYDDSVKGRFAISRDSAKNTVWLQMNSLKPEDTAVYYCAAATHVVVHYGLVRRRGTYDYWGQGTQVTVSS
notes: as for B1
B5: anti-IL-12Rβ2 VHH clone 3CRHM73 (clone ID 21060) (VHH)
VHH: QVQLQESGGGLVQAGGSLSLSCAASGSAFRLNFMGWYRQAPGKQRELVAAINSGGTEIYHDSVKGRFTISRDNADSTVWLQMNSLKPDDTAVYYCAADRGISWSKLAGGMDYWGKGTQVTVSS
notes: as for B1

How the values were obtained:
[1] = biological target: T1, biotinylated human recombinant IL-12Rβ2 …; experiment: BLI (Octet Red), periplasmic extract on biotinylated human IL-12Rβ2 on streptavidin tips
[2] = biological target: T2, biotinylated mouse recombinant IL-12Rβ2 …; experiment: BLI (Octet Red), periplasmic extract on biotinylated mouse IL-12Rβ2 on streptavidin tips
[3] = biological target: T1, biotinylated human recombinant IL-12Rβ2 …; experiment: ELISA, periplasmic extract on biotinylated human IL-12Rβ2; signal over streptavidin control well
[4] = biological target: T2, biotinylated mouse recombinant IL-12Rβ2 …; experiment: ELISA, periplasmic extract on biotinylated mouse IL-12Rβ2; signal over streptavidin control well
[5] = biological target: T3, human IL-12Rβ2 expressed on cells; experiment: flow cytometry, periplasmic extract VHH-HA on HEK293T cells transiently expressing human IL-12Rβ2
[6] = biological target: T4, mouse IL-12Rβ2 expressed on cells; experiment: flow cytometry, periplasmic extract VHH-HA on HEK293T cells transiently expressing mouse IL-12Rβ2
[7] = biological target: T1, biotinylated human recombinant IL-12Rβ2 …; experiment: BLI (Octet Red), periplasmic extract on biotinylated human IL-12Rβ2 on streptavidin tips, 1:1 model
[8] = biological target: T2, biotinylated mouse recombinant IL-12Rβ2 …; experiment: BLI (Octet Red), periplasmic extract on biotinylated mouse IL-12Rβ2 on streptavidin tips, 1:1 model
[9] = biological target: T5, biotinylated recombinant human IL-12Rβ2; experiment: BLI, P.E., off-rate ranking
[10] = biological target: T6, biotinylated recombinant mouse IL-12Rβ2; experiment: BLI, P.E., off-rate ranking
[11] = biological target: T5, biotinylated recombinant human IL-12Rβ2; experiment: ELISA, P.E., biotinylated antigen
[12] = biological target: T6, biotinylated recombinant mouse IL-12Rβ2; experiment: ELISA, P.E., biotinylated antigen

| Binder | Response [1] | Response [2] | hIL12RB2/control (ELISA) [3] | mIL12RB2/control (ELISA) [4] | % cells bound [5] | dMFI [5] | % cells bound [6] | dMFI [6] | koff [7] | koff [8] | Response [9] | koff [9] | Response [10] | koff [10] | ELISA hIL-12RB2/control [11] | ELISA mIL-12RB2/control [12] |
| --- | --- | --- | --- | --- | --- | --- | --- | --- | --- | --- | --- | --- | --- | --- | --- | --- |
| B1 | 1.45 | 0.812 | 4.24 ratio | 5.24 ratio | 24.4% | 458 | 10.7% | 251 | 0.00634 s⁻¹ | 0.00671 s⁻¹ | – | – | – | – | – | – |
| B2 | – | – | – | – | – | – | – | – | – | – | 0.693 | 0.00528 s⁻¹ | 1.35 | 0.00722 s⁻¹ | 8.46 | 14 |
| B3 | – | – | – | – | – | – | – | – | – | – | 1.4 | 0.00519 s⁻¹ | 1.03 | 0.00462 s⁻¹ | 3.04 | 38.8 |
| B4 | 1.19 | 0.957 | 3.11 ratio | 25.1 ratio | 35.8% | 589 | 18.6% | 312 | 0.00532 s⁻¹ | 0.00483 s⁻¹ | – | – | – | – | – | – |
| B5 | 1.45 | 0.944 | 6.9 ratio | 26.3 ratio | 19.5% | 297 | 10.4% | 257 | 0.00605 s⁻¹ | 0.00605 s⁻¹ | – | – | – | – | – | – |
